# Measurements as given in FireProtDB (doi:10.1021/bi011146t).
# “And” between values parts separate entries of the source, which are not always exact repeats. Equal values may be shown once.
# B1: wild type, O28558 (protein)
# chain: MLDMPIDPVYYQLAEYFDSLPKFDQFSSAREYREAINRIYEERNRQLSQHERVERVEDRTIKGRNGDIRVRVYQQKPDSPVLVYYHGGGFVICSIESHDALCRRIARLSNSTVVSVDYRLAPEHKFPAAVYDCYDATKWVAENAEELRIDPSKIFVGGDSAGGNLAAAVSIMARDSGEDFIKHQILIYPVVNFVAPTPSLLEFGEGLWILDQKIMSWFSEQYFSREEDKFNPLASVIFADLENLPPALIITAEYDPLRDEGEVFGQMLRRAGVEASIVRYRGVLHGFINYYPVLKAARDAINQIAALLVFD
# Settings: Archaeoglobus fulgidus (strain ATCC 49558 / DSM 4304 / JCM 9628 / NBRC 100126 / VC-16), pH 7.5, CD, sodium phosphate 20 mM, reversible: no, whole UniProt chain shown
protein,measurement,setting,value
B1,denaturant m value,"20 °C, Urea",1.65 kcal/mol/M
same,denaturant midpoint (higher = more stable),"20 °C, Urea",7.1 M
same,unfolding free energy,"20 °C, Urea",11.7 kcal/mol
same,unfolding enthalpy (van 't Hoff),Thermal,103 kcal/mol and 95.6 kcal/mol and 90.8 kcal/mol
